# US9708383 (Novo Nordisk, dated 2017)
# *1 amine or outer side, *2 acyl side, *3 side chain or, on linkers, in order; H or OH if unused. Where no end group is shown, it is not given here. Side-chain parts run from the residue outwards. [ ]: non-standard residue; d: D form. The star is where a group is joined. Decanoyl(10-(4-HOOC-PhO)) = O=C(O)c1ccc(OCCCCCCCCCC(=O)*)cc1; γGlu = O=C(O)[C@H](CCC(=O)[*:2])N[*:1]; C12 diacid = O=C(O)CCCCCCCCCCC(=O)*; 13‑carboxytridecanoyl = C14 diacid; AEEA = NCCOCCOCC(=O)O; Aib = CC(C)(N)C(=O)O
# B1: GLP-1 derivative of Example 124: [Lys18,Glu22,Val25,Arg26,Lys31,Arg34]-GLP-1-(7-37)-peptide (peptide)
# peptide: HAEGTFTSDVSK([AEEA-AEEA-γGlu-C12 diacid])YLEEQAVREFIAK([AEEA-AEEA-γGlu-C12 diacid])LVRGRG
# B2: GLP-1 derivative of Example 133: [Lys18,Glu22,Val25,Arg26,Lys31,Arg34]-GLP-1-(7-37)-peptide amide (peptide)
# peptide: HAEGTFTSDVSK([AEEA-AEEA-γGlu-13‑carboxytridecanoyl])YLEEQAVREFIAK([AEEA-AEEA-γGlu-13‑carboxytridecanoyl])LVRGRG-NH2
# B3: GLP-1 derivative of Example 126: [Lys18,Lys22,Arg26,Gln34]-GLP-1-(7-37)-peptide (peptide)
# peptide: HAEGTFTSDVSK([AEEA-AEEA-γGlu-γGlu-13‑carboxytridecanoyl])YLEK([AEEA-AEEA-γGlu-γGlu-13‑carboxytridecanoyl])QAAREFIAWLVQGRG
# B4: GLP-1 derivative of Example 119: [Lys18,Glu22,His26,Lys27,His31,Gln34]-GLP-1-(7-37)-peptide (peptide)
# peptide: HAEGTFTSDVSK([AEEA-AEEA-γGlu-13‑carboxytridecanoyl])YLEEQAAHK([AEEA-AEEA-γGlu-13‑carboxytridecanoyl])FIAHLVQGRG
# B5: GLP-1 derivative of Example 2: [Aib8,Lys18,Glu22,Gln34]-GLP-1-(7-37)-peptide (peptide)
# peptide: H[Aib]EGTFTSDVSK([AEEA-AEEA-γGlu-Decanoyl(10-(4-HOOC-PhO))])YLEEQAAK([AEEA-AEEA-γGlu-Decanoyl(10-(4-HOOC-PhO))])EFIAWLVQGRG
# B6: GLP-1 derivative of Example 51: [Aib8,Lys18,Glu22,Arg26,Lys30,Arg34]-GLP-1-(7-37)-peptide (peptide)
# peptide: H[Aib]EGTFTSDVSK([AEEA-AEEA-γGlu-13‑carboxytridecanoyl])YLEEQAAREFIK([AEEA-AEEA-γGlu-13‑carboxytridecanoyl])WLVRGRG
# B7: GLP-1 derivative of Example 88: [Aib8,Lys18,Glu22,Arg34]-GLP-1-(7-37)-peptide (peptide)
# peptide: H[Aib]EGTFTSDVSK([AEEA-AEEA-γGlu-Decanoyl(10-(4-HOOC-PhO))])YLEEQAAK([AEEA-AEEA-γGlu-Decanoyl(10-(4-HOOC-PhO))])EFIAWLVRGRG
# B8: GLP-1 derivative of Example 68: [Aib8,Lys18,Val26,Lys27,Arg34]-GLP-1-(7-37)-peptide (peptide)
# peptide: H[Aib]EGTFTSDVSKYLEGQAAVKFIAWLVRGRG
# modifications: not fully specified (residues 12, 21)
# notes: also called Chem. 87
# B9: GLP-1 derivative of Example 76: [Aib8,Lys18,Glu22,Val25,Arg26,Lys31,Arg34]-GLP-1-(7-37)-peptide (peptide)
# peptide: H[Aib]EGTFTSDVSK([AEEA-AEEA-γGlu-Decanoyl(10-(4-HOOC-PhO))])YLEEQAVREFIAK([AEEA-AEEA-γGlu-Decanoyl(10-(4-HOOC-PhO))])LVRGRG
# B10: GLP-1 derivative of Example 73: [Aib8,Lys18,Glu22,Arg26,Lys31,Arg34]-GLP-1-(7-37)-peptide (peptide)
# peptide: H[Aib]EGTFTSDVSK([AEEA-AEEA-γGlu-13‑carboxytridecanoyl])YLEEQAAREFIAK([AEEA-AEEA-γGlu-13‑carboxytridecanoyl])LVRGRG
# B11: GLP-1 derivative of Example 74: [Aib8,Lys18,Glu22,Val25,Arg26,Lys31,Arg34]-GLP-1-(7-37)-peptide (peptide)
# peptide: H[Aib]EGTFTSDVSK([AEEA-AEEA-γGlu-13‑carboxytridecanoyl])YLEEQAVREFIAK([AEEA-AEEA-γGlu-13‑carboxytridecanoyl])LVRGRG
# B12: GLP-1 derivative of Example 1: [Aib8,Lys18,Glu22,Arg26,Arg34,Lys37]-GLP-1-(7-37)-peptide (peptide)
# peptide: H[Aib]EGTFTSDVSK([AEEA-AEEA-γGlu-Decanoyl(10-(4-HOOC-PhO))])YLEEQAAREFIAWLVRGRK([AEEA-AEEA-γGlu-Decanoyl(10-(4-HOOC-PhO))])
# B13: GLP-1 derivative of Example 41: [Aib8,Lys18,Glu22,Val25,Arg26,Lys27,Gln34]-GLP-1-(7-37)-peptide (peptide)
# peptide: H[Aib]EGTFTSDVSK([AEEA-AEEA-γGlu-Decanoyl(10-(4-HOOC-PhO))])YLEEQAVRK([AEEA-AEEA-γGlu-Decanoyl(10-(4-HOOC-PhO))])FIAWLVQGRG
# B14: GLP-1 derivative of Example 3: [Aib8,Lys18,Glu22,Arg26,Lys31,Arg34]-GLP-1-(7-37)-peptide (peptide)
# peptide: H[Aib]EGTFTSDVSK([AEEA-AEEA-γGlu-Decanoyl(10-(4-HOOC-PhO))])YLEEQAAREFIAK([AEEA-AEEA-γGlu-Decanoyl(10-(4-HOOC-PhO))])LVRGRG
# Biological target: T1, human GLP-1 receptor (human, UniProt P43220 24-463)
# T1 construct: whole, on cells; Used as purified membranes of the transfected hamster cells, not whole cells; also called hGLP-1
# Experiment: SPA, displacement of 125I-GLP-1(7-36)NH2, 0.005% HSA
# Experimental: (§1) A shift in the binding affinity, $IC50$, is an indication that the derivative in question binds to albumin, and thereby a prediction of a potential protracted pharmacokinetic profile of the derivative in question in animal models.
# (§2) 25 ul (microliter) of test compounds are added to Optiplate. HSA ("high albumin" experiment containing 2% HSA), or buffer ("low albumin" experiment containing 0.005% HSA), was added (50 ul). 5-10 µg protein/sample was added (50 ul) corresponding to 0.1-0.2 mg protein/ml (to be preferably optimised for each membrane preparation). SPA-particles (Wheatgerm agglutinin SPA beads, Perkin Elmer, #RPNQ0001) were added in an amount of 0.5 mg/well (50 ul). […] The plates were sealed with PlateSealer and incubated for 120 minutes at 30° C. while shaking. The plates were centrifuged (1500 rpm, 10 min) and counted in Topcounter.
row,Binder,IC50
1,B1,< 1000 nM
2,B2,< 1000 nM
3,B3,< 1000 nM
4,B4,< 1000 nM
5,B5,< 1000 nM
6,B6,< 1000 nM
7,B7,< 1000 nM
8,B8,< 1000 nM
9,B9,< 1000 nM
10,B10,< 1000 nM
11,B11,< 1000 nM
12,B12,< 1000 nM
13,B13,< 1000 nM
14,B14,< 1000 nM

# Biological target: T1, human GLP-1 receptor
# Experiment: SPA, 2.0% vs 0.005% HSA
# Experimental: as §1, §2
row,Binder,ratio IC50 high HSA/IC50 low HSA
1,B1,> 1
2,B2,> 1
3,B3,> 1
4,B4,> 1
5,B5,> 1
6,B6,> 1
7,B7,> 1
8,B8,> 1
9,B9,> 1
10,B10,> 1
11,B11,> 1
12,B12,> 1
13,B13,> 1
14,B14,> 1
